Molecular target: the molecule itself
Assay: cryo-EM structure; xtZnT8-Zn^2+: single-particle cryo-EM, 20 mM Tris-HCl pH 7.5, 150 mM NaCl, 5 mM beta-mercaptoethanol, 0.5 mM DDM, 1 mM ZnSO4; 3.9 A

B1: ZnT8 from Xenopus tropicalis, xtZnT8-BRIL fusion protein (natural protein, UniProt Q5XHB4 1-374, looked up)
chain: MKGSEEAYLVSDKATKMYSLTKDSEKNHPSKPPLQDEENPQSKYHCHNNNKKAYDARQREQTFAKKKLCIASLICFVFISAEIVGGYIAGSLAVVTDAAHLLVDLSSFFISLCSLWLSSKSSTTRLTFGWHRAEILGALMSVITIWLVTGVLVYLACERLIRPDYTIDGTVMLITSACALGANLVLALILHQSGHGHSHAGGKHEHMASEYKPQTNASIRAAFIHVIGDLFQSISVLISALIIYFKPEYKMADPICTFIFSIFVLITTVTVLRDLLTVLMEGTPRGIHYSDVKQSILAVDGVKSVHSLHLWALTMNQVILSAHIATDIVGESKRILKDVTQNVFARFPFHSVTIQVEPIEDQSPECMFCYEPTQ
notes: Zinc transporter 8 (ZnT8, SLC30A8) from Xenopus tropicalis, full-length wild type, NCBI NP_001011041.1; BRIL was fused to the carboxy-end of xtZnT8 before the TEV site and His10; it is written as a carrier under tags; also called zinc transporter 8; xtZnT8-Zn^2+; not shown: BRIL (bacterial cytochrome b562RIL), C-terminal, kept
stoichiometry N: 2
